Changes are numbered by the printed parent chain. In names and notes the source's numbering stands.
T1: TNFR1 (Homo sapiens, UniProt P19438)
T1 chain: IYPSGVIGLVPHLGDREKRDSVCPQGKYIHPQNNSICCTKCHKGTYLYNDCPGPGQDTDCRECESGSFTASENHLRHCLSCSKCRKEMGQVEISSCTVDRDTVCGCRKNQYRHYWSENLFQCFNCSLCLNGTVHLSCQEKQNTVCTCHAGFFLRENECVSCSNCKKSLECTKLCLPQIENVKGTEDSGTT

B1: E45L (designed binder)
chain: SMEEEVEKAAKEYEKKKKEAIEKHLEKLKAKDKEAAERFLKELELAAKEYAKDEAKTMSEEEAKRRAKKYKEKVLLSELSEEEQKEIKEAEEKLVRTILKYVEEAAK
B2: A105P (designed binder)
chain: B1 chain with L45E, A105P
B3: K93F (designed binder)
chain: B1 chain with L45E, K93F
B4: E62K (designed binder)
chain: B1 chain with L45E, E62K
B5: I87D (designed binder)
chain: B1 chain with L45E, I87D
B6: K100V (designed binder)
chain: B1 chain with L45E, K100V
B7: K85L (designed binder)
chain: B1 chain with L45E, K85L
B8: S80C (designed binder)
chain: B1 chain with L45E, S80C
B9: K33T (designed binder)
chain: B1 chain with K33T, L45E
B10: L99C (designed binder)
chain: B1 chain with L45E, L99C
B11: K31V (designed binder)
chain: B1 chain with K31V, L45E
B12: Y101E (designed binder)
chain: B1 chain with L45E, Y101E
B13: A47H (designed binder)
chain: B1 chain with L45E, A47H
B14: K15D (designed binder)
chain: B1 chain with K15D, L45E
B15: H24C (designed binder)
chain: B1 chain with H24C, L45E
B16: A67Q (designed binder)
chain: B1 chain with L45E, A67Q
B17: K15C (designed binder)
chain: B1 chain with K15C, L45E
B18: E44L (designed binder)
chain: B1 chain with E44L, L45E
B19: L94E (designed binder)
chain: B1 chain with L45E, L94E
B20: V74M (designed binder)
chain: B1 chain with L45E, V74M
B21: E60N (designed binder)
chain: B1 chain with L45E, E60N
B22: A36H (designed binder)
chain: B1 chain with A36H, L45E
B23: A90S (designed binder)
chain: B1 chain with L45E, A90S
B24: E61P (designed binder)
chain: B1 chain with L45E, E61P
B25: E91Y (designed binder)
chain: B1 chain with L45E, E91Y
B26: V74Q (designed binder)
chain: B1 chain with L45E, V74Q
B27: A67D (designed binder)
chain: B1 chain with L45E, A67D
B28: I98F (designed binder)
chain: B1 chain with L45E, I98F
B29: A10G (designed binder)
chain: B1 chain with A10G, L45E
B30: K107H (designed binder)
chain: B1 chain with L45E, K107H
B31: E34N (designed binder)
chain: B1 chain with E34N, L45E
B32: E3L (designed binder)
chain: B1 chain with E3L, L45E
B33: I21V (designed binder)
chain: B1 chain with I21V, L45E
B34: K48W (designed binder)
chain: B1 chain with L45E, K48W
B35: E54Y (designed binder)
chain: B1 chain with L45E, E54Y
B36: V95G (designed binder)
chain: B1 chain with L45E, V95G
B37: E89C (designed binder)
chain: B1 chain with L45E, E89C
B38: A35E (designed binder)
chain: B1 chain with A35E, L45E
B39: L75R (designed binder)
chain: B1 chain with L45E, L75R
B40: M2N (designed binder)
chain: B1 chain with M2N, L45E
B41: K11A (designed binder)
chain: B1 chain with K11A, L45E
B42: E7S (designed binder)
chain: B1 chain with E7S, L45E
B43: Y101M (designed binder)
chain: B1 chain with L45E, Y101M
B44: K85D (designed binder)
chain: B1 chain with L45E, K85D
B45: A9V (designed binder)
chain: B1 chain with A9V, L45E
B46: E42P (designed binder)
chain: B1 chain with E42P, L45E
B47: E104I (designed binder)
chain: B1 chain with L45E, E104I
B48: R38S (designed binder)
chain: B1 chain with R38S, L45E
B49: Y50Q (designed binder)
chain: B1 chain with L45E, Y50Q
B50: K71N (designed binder)
chain: B1 chain with L45E, K71N
B51: D32W (designed binder)
chain: B1 chain with D32W, L45E
B52: E26Q (designed binder)
chain: B1 chain with E26Q, L45E
B53: S77Y (designed binder)
chain: B1 chain with L45E, S77Y
B54: K73H (designed binder)
chain: B1 chain with L45E, K73H
B55: K17D (designed binder)
chain: B1 chain with K17D, L45E
B56: E26V (designed binder)
chain: B1 chain with E26V, L45E
B57: E103M (designed binder)
chain: B1 chain with L45E, E103M
B58: M2Q (designed binder)
chain: B1 chain with M2Q, L45E
B59: E5A (designed binder)
chain: B1 chain with E5A, L45E

Target: T1, TNFR1
Experiment: yeast display SC50

apparent Kd (screen) [nM] | Binder
1.69 | B1
0.653 | B2
0.653 | B3
0.49 | B4
15.2 | B5
1.4 | B6
0.79 | B7
1.05 | B8
0.49 | B9
13.8 | B10
0.446 | B11
0.405 | B12
0.446 | B13
0.653 | B14
0.446 | B15
11.4 | B16
1.27 | B17
1.4 | B18
8.56 | B19
1.54 | B20

apparent Kd (screen) [nM] | Binder
3.63 | B21
0.49 | B22
0.79 | B23
0.869 | B24
8.56 | B25
29.5 | B26
5.31 | B27
4.39 | B28
0.446 | B29
1.86 | B30
0.49 | B31
12.5 | B32
0.446 | B33
2.73 | B34
7.78 | B35
5.84 | B36
1.86 | B37
2.25 | B38
1.16 | B39
0.49 | B40

apparent Kd (screen) [nM] | Binder
0.446 | B41
2.73 | B42
2.25 | B43
0.446 | B44
0.49 | B45
4.83 | B46
0.653 | B47
2.73 | B48
4.83 | B49
0.446 | B50
22.2 | B51
0.956 | B52
0.869 | B53
12.5 | B54
5.31 | B55
0.79 | B56
0.593 | B57
0.869 | B58
0.593 | B59
